This note sets out measurements from publication PMC8430995.

This test has as its target Akt WT (transfected) (UniProt P31749). Put plainly: co-immunoprecipitation (K8/K18 IP, Akt immunoblot, quantified). As to conditions: BHK-21 cells transfected with Akt WT, parent: est. 1.0, read off a plot.

Akt WT (transfected), sequence (P31749 whole entry): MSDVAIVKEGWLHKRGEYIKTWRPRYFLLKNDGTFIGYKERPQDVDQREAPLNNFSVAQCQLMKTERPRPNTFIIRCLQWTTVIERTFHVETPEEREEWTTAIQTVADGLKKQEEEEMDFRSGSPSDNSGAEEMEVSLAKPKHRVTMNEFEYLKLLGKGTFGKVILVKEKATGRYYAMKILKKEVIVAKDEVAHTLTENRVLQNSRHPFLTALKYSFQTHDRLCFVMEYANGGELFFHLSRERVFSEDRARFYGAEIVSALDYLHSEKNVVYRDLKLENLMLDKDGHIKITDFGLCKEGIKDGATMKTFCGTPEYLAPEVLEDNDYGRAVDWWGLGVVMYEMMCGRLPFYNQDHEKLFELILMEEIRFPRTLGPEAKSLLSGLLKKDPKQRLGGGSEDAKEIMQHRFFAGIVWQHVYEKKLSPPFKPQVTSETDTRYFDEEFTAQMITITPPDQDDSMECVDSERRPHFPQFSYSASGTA
K8 WT/K18 WT (transfected) (from UniProt P05787;P05783) K18:T294M, sequence (P05787 whole entry, stated change not applied): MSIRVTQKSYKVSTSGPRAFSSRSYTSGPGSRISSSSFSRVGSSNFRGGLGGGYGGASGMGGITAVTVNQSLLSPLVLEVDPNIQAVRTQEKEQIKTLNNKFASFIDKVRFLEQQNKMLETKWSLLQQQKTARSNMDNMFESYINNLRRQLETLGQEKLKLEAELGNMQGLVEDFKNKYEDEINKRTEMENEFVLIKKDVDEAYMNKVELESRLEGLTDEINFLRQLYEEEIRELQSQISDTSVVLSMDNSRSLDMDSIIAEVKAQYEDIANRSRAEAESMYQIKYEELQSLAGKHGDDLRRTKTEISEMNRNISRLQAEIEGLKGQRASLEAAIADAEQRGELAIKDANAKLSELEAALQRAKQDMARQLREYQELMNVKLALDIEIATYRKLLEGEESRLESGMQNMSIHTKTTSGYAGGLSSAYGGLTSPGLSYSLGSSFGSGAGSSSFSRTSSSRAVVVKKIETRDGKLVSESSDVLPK
K8 WT/K18 WT (transfected) (from UniProt P05787;P05783) K18:T294M, sequence (P05783 whole entry, stated change not applied): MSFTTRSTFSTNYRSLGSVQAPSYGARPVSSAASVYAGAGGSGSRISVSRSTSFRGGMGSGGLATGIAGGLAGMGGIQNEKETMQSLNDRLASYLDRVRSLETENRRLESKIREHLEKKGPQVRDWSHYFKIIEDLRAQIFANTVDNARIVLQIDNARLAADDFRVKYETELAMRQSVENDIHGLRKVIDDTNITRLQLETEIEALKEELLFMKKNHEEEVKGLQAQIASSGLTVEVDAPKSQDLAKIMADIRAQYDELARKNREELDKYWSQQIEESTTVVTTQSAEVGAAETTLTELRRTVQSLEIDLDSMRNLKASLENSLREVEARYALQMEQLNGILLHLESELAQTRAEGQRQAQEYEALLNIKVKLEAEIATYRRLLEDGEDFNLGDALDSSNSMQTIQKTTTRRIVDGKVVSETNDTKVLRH
K8 WT/K18 WT (transfected) (from UniProt P05787;P05783) K8:R454C, sequence (P05787 whole entry, stated change not applied): as the sequence (P05787 whole entry, stated change not applied) above
K8 WT/K18 WT (transfected) (from UniProt P05787;P05783) K8:R454C, sequence (P05783 whole entry, stated change not applied): as the sequence (P05783 whole entry, stated change not applied) above
K8 WT/K18 WT (transfected) (from UniProt P05787;P05783) K8:R341H, sequence (P05787 whole entry, stated change not applied): as the sequence (P05787 whole entry, stated change not applied) above
K8 WT/K18 WT (transfected) (from UniProt P05787;P05783) K8:R341H, sequence (P05783 whole entry, stated change not applied): as the sequence (P05783 whole entry, stated change not applied) above
K8 WT/K18 WT (transfected) (from UniProt P05787;P05783) K18:Q284R, sequence (P05787 whole entry, stated change not applied): as the sequence (P05787 whole entry, stated change not applied) above
K8 WT/K18 WT (transfected) (from UniProt P05787;P05783) K18:Q284R, sequence (P05783 whole entry, stated change not applied): as the sequence (P05783 whole entry, stated change not applied) above
K8 WT/K18 WT (transfected) (from UniProt P05787;P05783) K8:Y54H, sequence (P05787 whole entry, stated change not applied): as the sequence (P05787 whole entry, stated change not applied) above
K8 WT/K18 WT (transfected) (from UniProt P05787;P05783) K8:Y54H, sequence (P05783 whole entry, stated change not applied): as the sequence (P05783 whole entry, stated change not applied) above
K8 WT/K18 WT (transfected) (from UniProt P05787;P05783) K8:A319S, sequence (P05787 whole entry, stated change not applied): as the sequence (P05787 whole entry, stated change not applied) above
K8 WT/K18 WT (transfected) (from UniProt P05787;P05783) K8:A319S, sequence (P05783 whole entry, stated change not applied): as the sequence (P05783 whole entry, stated change not applied) above
K8 WT/K18 WT (transfected) (from UniProt P05787;P05783) K18:I149V, sequence (P05787 whole entry, stated change not applied): as the sequence (P05787 whole entry, stated change not applied) above
K8 WT/K18 WT (transfected) (from UniProt P05787;P05783) K18:I149V, sequence (P05783 whole entry, stated change not applied): as the sequence (P05783 whole entry, stated change not applied) above

Consider “K8 WT/K18 WT (transfected) (from UniProt P05787;P05783) K8:R454C”, for which the ratio to parent (K18 WT and the K8 mutant) turned out to be 1.1. “K8 WT/K18 WT (transfected) (from UniProt P05787;P05783) K8:A319S”: the ratio to parent (K18 WT and the K8 mutant) is 0.93. On the same count and under the same terms, the value for “K8 WT/K18 WT (transfected) (from UniProt P05787;P05783) K8:Y54H” was 1.1. Turning to “K8 WT/K18 WT (transfected) (from UniProt P05787;P05783) K18:T294M”, the ratio to parent (K8 WT and the K18 mutant) was 1.6.

As to “K8 WT/K18 WT (transfected) (from UniProt P05787;P05783) K18:I149V”, the ratio to parent (K8 WT and the K18 mutant) is 1.1. On to “K8 WT/K18 WT (transfected) (from UniProt P05787;P05783) K8:R341H”, for which the ratio to parent (K18 WT and the K8 mutant) is 0.92. As for “K8 WT/K18 WT (transfected) (from UniProt P05787;P05783) K18:Q284R”, the ratio to parent (K8 WT and the K18 mutant) worked out at 1.3.
